PMC12205362

Test system: MutS (Cy3-labeled) (Escherichia coli)
Assay: smFRET (TIRF)
Details: GT mismatch, amino-dT, smTIRF FRET on surface-immobilized plasmids, imaging buffer and temperature not in material, dCas9 RNP assembled in 30 mM HEPES, 150 mM KCl, pH 7.5, MutS with …; for binding signal (fold lower k-1 vs RC): ATP

Substance: pUC19HL_MutS GT mismatch, negatively supercoiled (-)SC
- binding signal (fold lower k-1 vs RC) (k1 ~1.3x higher than RC, negatively supercoiled by gyrase, average sigma -0.07): 1.3
- binding signal (negatively supercoiled by gyrase, average sigma -0.07): 0.075 s-1 (koff)

Substance: pUC19HL_MutS GT mismatch, positively supercoiled (+)SC
- binding signal (fold lower k-1 vs RC) (k1 similar to RC, positively supercoiled by 9N reverse gyrase, average sigma +0.03): 1.3
- binding signal (positively supercoiled by 9N reverse gyrase, average sigma +0.03): 0.107 s-1 (koff)

Substance: pUC19HL_MutS GT mismatch, relaxed circular (RC)
- binding signal (covalently closed relaxed circle): 0.204 s-1 (koff)
